Results from patent publication US5352587A, “Compositions and methods for the synthesis of natriuretic protein receptor B and methods of use” (Genentech, Inc., priority 1991, dated 1994).
One block for each molecule: values may come before it. Ends that are not written are not given here.

Assays:
NPRB [1] = target: T1, NPRB (Homo sapiens, UniProt P20594); test: Specific binding to COS-7 cells transfected with pRK-NPRB; settings: Table 2, 0.5 nM, room temperature, 1 hr
T1 construct: whole cells or solubilized membranes
T1 sequence (P20594 23-1047): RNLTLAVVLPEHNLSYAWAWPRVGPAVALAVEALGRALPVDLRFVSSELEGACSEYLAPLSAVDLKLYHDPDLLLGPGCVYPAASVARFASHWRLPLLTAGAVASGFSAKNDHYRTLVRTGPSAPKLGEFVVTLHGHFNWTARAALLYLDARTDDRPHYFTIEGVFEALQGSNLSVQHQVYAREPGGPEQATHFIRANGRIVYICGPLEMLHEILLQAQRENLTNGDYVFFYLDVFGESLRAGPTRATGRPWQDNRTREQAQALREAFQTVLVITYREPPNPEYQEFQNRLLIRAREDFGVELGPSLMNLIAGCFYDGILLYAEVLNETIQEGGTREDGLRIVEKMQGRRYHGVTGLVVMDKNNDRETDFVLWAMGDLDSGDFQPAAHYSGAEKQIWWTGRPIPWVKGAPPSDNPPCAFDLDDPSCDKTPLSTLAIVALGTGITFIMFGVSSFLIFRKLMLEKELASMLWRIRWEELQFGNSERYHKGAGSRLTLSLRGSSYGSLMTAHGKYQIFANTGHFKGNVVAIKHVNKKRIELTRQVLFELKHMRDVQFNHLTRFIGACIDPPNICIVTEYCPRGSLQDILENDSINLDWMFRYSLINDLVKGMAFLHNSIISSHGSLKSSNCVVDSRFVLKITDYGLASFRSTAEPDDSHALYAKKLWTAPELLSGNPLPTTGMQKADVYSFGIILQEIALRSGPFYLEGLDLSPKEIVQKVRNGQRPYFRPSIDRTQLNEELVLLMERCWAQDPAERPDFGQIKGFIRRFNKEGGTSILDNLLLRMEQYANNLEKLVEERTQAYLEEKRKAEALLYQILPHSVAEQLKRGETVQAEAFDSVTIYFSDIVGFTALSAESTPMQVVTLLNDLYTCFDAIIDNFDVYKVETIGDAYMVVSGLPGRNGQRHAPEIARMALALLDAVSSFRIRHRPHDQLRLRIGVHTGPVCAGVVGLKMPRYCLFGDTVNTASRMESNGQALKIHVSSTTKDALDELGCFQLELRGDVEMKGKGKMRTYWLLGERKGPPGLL
Method: (§1) To examine the biochemical properties of the NPRB receptor, we constructed an expression vector in which the coding sequence was placed under the transcriptional control of the cytomegalovirus immediate-early promoter (Table 2). […] The NPRB expression vector was transfected into COS-2 cells in a transient expression assay and the detergent solubilized guanylyl cyclase activity of a membrane fraction was measured (Table 2). […] Specific binding of [^125 l]-human ANP (ANP) and [^125 l]-porcine BNP (pBNP) to transfected cells was determined in the presence of absence of unlabeled peptides.
(§2) COS-7 cells maintained in Dulbecco's modified Eagles' medium (DMEM) supplemented with 10% fetal calf serum were seeded at 5×10^6 cells per 100 mm plate (GC assay) or 1×10^5 per 35 mm plate (binding assay). Twelve house later, cells were transfected with control vector^5 (1 mg/ml) using DEAE-dextran.
(§3) Following the incubation, cells were rinsed with cold PBS, and dissolved in 2 ml of 0.2M NaOH and radioactivity was measured in gamma counter. All measurements were in triplicate. […] Specific binding in table 2 was calculated by subtracting the background binding from the total binding.

guanylyl cyclase = test: Detergent-solubilized membrane (particulate) guanylyl cyclase activity of transfected COS cells; assay type: biochemical, human; settings: for guanylyl cyclase specific activity, fold higher than control cells: COS-2 cells, membrane fraction; for Guanylyl Cyclase Activity: Table 2, transfected COS-7 cells, mean ± standard deviation of triplicate determinations
Method: To examine the biochemical properties of the NPRB receptor, we constructed an expression vector in which the coding sequence was placed under the transcriptional control of the cytomegalovirus immediate-early promoter (Table 2). The vector pRK is disclosed in EP 307,247, published Mar. 15, 1989. The NPRB expression vector was transfected into […] in a transient expression assay and the detergent solubilized guanylyl cyclase activity of a membrane fraction was measured (Table 2). Cells transfected with the NPRB expression vector has about eleven-fold higher guanylyl cyclase specific activity that control cells, while cells transfected with an NPRA receptor expression vector^5 using pRK has a six-fold higher guanylyl cyclase specific activity. Specific binding of [^125 l]-human ANP (ANP) and [^125 l]-porcine BNP (pBNP) to transfected cells was determined in the presence of absence of unlabeled peptides.
as §2, with “DEAE-dextran. The vector pRK-NPRBR contained nucleotides 253 to 3470 (FIG. 1) of the NPRB receptor in the expression vector pRK5 under the control of the cytomegalovirus immediate early promoter.” for “DEAE-dextran.”
Guanylate cyclase activity was determined forty-eight hours after transfection, the cells were washed with phosphate buffer saline (PBS), scraped into 4 ml PBS and homogenized with 40 strokes of a Dounce homogenizer at 0° C. Nuclei were pelleted and the supernatant was centrifuged at 100,000 xg for 30 minutes in SW 55- Ti rotor to obtain a membrane pellet. Membrane proteins were solubilized by incubation or ice for 10 minutes in solution containing 20 mM Hepes, pH 7.4, 200 mM NaCl, 10% glycerol, 1% Triton X-100 and 1 mM dithiothreitol. Protein concentrations were measured by a dye binding assay (BioRad). Gyanylate cyclase reactions contained […] of membrane proteins in […] of 20 mM Hepes pH 7.4, 30 units of creatine phosphokinase, 1 mM GTP, 4 mM MnCl2 and 0.5 mM isobutyl methylxanthine (IBMX). After incubation at 37° C. for 10 minutes the reaction was stopped by addition of […] of 50 mM acetic acid (pH 6.2) and boiled for 3 min. Aliquots were analyzed for cGMP after acetylation with 1/20 volume of acetic anhydride/triethylamine (1:2) then radioimmuno-assay (Biomedical Technologies, Inc.). Results are expressed in Table 2 as the mean±standard deviation of triplicate determinations.

NPRA = target: T2, NPRA (Homo sapiens, UniProt P16066); test: Specific binding to COS-7 cells transfected with pRK-NPRA; settings: Table 2, 0.5 nM, room temperature, 1 hr
T2 construct: whole cells or solubilized membranes
T2 sequence (P16066 33-1061): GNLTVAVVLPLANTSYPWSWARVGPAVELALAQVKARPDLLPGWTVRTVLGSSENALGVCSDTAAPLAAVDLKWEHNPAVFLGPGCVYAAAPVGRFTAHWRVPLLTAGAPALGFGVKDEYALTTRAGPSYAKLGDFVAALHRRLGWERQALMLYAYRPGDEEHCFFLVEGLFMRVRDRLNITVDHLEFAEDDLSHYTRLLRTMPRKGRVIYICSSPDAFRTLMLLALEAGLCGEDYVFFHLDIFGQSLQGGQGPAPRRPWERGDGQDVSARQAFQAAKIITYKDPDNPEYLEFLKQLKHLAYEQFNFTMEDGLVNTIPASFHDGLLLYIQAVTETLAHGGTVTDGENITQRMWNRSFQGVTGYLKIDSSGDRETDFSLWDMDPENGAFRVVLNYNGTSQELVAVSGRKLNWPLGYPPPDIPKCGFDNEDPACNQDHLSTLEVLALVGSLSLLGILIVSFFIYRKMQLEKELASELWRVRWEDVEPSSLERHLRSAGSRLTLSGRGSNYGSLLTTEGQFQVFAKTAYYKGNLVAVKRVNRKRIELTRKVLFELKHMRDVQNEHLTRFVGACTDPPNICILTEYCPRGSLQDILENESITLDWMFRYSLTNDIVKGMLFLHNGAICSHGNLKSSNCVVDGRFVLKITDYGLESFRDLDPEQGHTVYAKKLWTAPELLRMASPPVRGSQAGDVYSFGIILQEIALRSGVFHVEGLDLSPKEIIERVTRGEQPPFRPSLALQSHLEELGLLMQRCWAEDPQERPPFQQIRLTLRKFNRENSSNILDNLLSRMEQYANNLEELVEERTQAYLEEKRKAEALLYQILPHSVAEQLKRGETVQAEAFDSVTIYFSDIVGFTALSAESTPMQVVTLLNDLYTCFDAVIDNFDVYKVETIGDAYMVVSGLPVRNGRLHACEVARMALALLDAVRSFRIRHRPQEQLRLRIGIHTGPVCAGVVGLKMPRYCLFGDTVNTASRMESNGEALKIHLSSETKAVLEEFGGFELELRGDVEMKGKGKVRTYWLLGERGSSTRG
Method: as §1, §2, §3

NPRB [2] = target: T1, NPRB; test: Transient expression whole-cell stimulation of cGMP production, NPRB-transfected COS-7 cells; assay type: cell-based
Method: Ligand-dependent activation of the cytoplasmic guanylyl cyclase (GC) domains of the human NPRB and NPRA receptors was examined in transient expression whole-cell stimulation assays. In FIG. 3, the natriuretic peptide stimulation of cGMP production is shown. COS-7 cells transfected with pRK (control; pane C), human NPRA expression vector^5 (panel A), or human NPRB receptor expression vector (panel B) were either not treated (panel C) or stimulated with 500 nM porcine BNP (BNP) or human ANP (ANP) for 5 minutes. Results are expressed as the mean amount of cGMP (pmoles) per culture±standard deviation for 3 independent determinations.
The COS-7 cells were seeded at a density of 1×10^6 cells per well in a 60 mm plate with high glucose DMEM plus 10% heat inactivated dialyzed calf serum and maintained for 12 hours at 37° C. in 7%, 93% air. […] of plasmid DNA was transfected with […] of DEAE-dextran in 2 ml of high glucose DMEM±10% Nuserum (Gibco) for 4 hours. Cells were shocked with 20% glycerol in PBS for 1 minute, fresh medium was added and cells were maintained for 72 hours prior to stimulation. Non-treated cultures were incubated at 37° C. in DMEM with 25 mM Hepes pH 7.2, […] IBMX at 37° C. for 10 minutes, medium was aspirated and 6% trichloroacetic acid (TCA) was added. Stimulated samples were treated for an additional 5 minutes in the presence of 500 nM peptide before TCA treatment. Samples were frozen at -20° C. for 1 hr, thawed at room temperature, and cell debris was removed by centrifugation at 2500 xg for 10 minutes. Samples were extracted once with 4 volumes of water-saturated ether, briefly evaporated and assayed for cGMP as described in Table 2.

Molecule: [^125 l]-ANP: [^125 l]-human ANP (1800 Ci/mmole, Amersham)
Specific Binding of [^125 l]-ANP (NPRB [1]): 10,694 ± 1412 cpm

Molecule: NPRA: 120-140 kd NPRA receptor, a membrane form of guanylyl cyclase
guanylyl cyclase specific activity, fold higher than control cells (guanylyl cyclase): six | Guanylyl Cyclase Activity (guanylyl cyclase): 1.91 ± 0.01 pmole cGMP/min/mg protein

Specific Binding of [^125 l]-pBNP (NPRA): 5,721 ± 1107 cpm | Specific Binding of [^125 l]-pBNP (NPRB [1]): 3,643 ± 26 cpm
Molecule: [^125 l]-pBNP: [^125 l]-porcine BNP (600 Ci/mmol) (DSGCFGRRLDRIGSLSGLGCNVLRRY; ends and bridges not checked; also: 125I label, position not given here; UniProt P07634 106-131, looked up)

Molecule: pBNP: porcine BNP (brain natriuretic peptide) (DSGCFGRRLDRIGSLSGLGCNVLRRY; ends and bridges not checked; cysteine pairing not given here; UniProt P07634 106-131, looked up)
fold increase in cGMP over control transfected cells (NPRB [2]; NPRB, 500 nM peptide, 5 minutes): 9.7 fold | fold more effective than ANP in the activation of NPRB GC activity (NPRB [2]; NPRB, 500 nM peptide, 5 minutes, versus ANP): 6.4 fold | activation of NPRB receptor (in words) (NPRB [2]; pBNP as compared to human ANP): preferentially activated

B1: NPRB: human natriuretic peptide receptor B having the sequence of FIG. 1, expressed from pRK vector (protein, UniProt P20594 23-1047, looked up)
Atrial natriuretic peptide …: T1 sequence (P20594 23-1047)
guanylyl cyclase specific activity, fold higher than control cells (guanylyl cyclase): about eleven | Guanylyl Cyclase Activity (guanylyl cyclase): 3.50 ± 0.01 pmole cGMP/min/mg protein
